Reference: patent US20180155451A1 (published 2018)

T1: FcγRIIb (human, UniProt P31994 43-217)
T1 construct: extracellular domain; also called FcgRIIb; 2b
T1 sequence (looked up): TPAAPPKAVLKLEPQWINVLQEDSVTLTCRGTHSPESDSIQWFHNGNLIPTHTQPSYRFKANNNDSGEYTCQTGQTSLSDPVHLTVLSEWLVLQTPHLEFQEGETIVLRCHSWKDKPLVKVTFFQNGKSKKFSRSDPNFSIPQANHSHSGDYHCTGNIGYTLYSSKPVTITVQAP


Assays:
FcγRIa = molecular target: T2, FcγRIa (human, UniProt P12314 16-292); assay: SPR, captured antibody; relative to GpH7-A5/GpH7-B3/GpL16-k0
T2 construct: extracellular domain; also called FcgRI; 1a

FcγRIIb = molecular target: T1, FcγRIIb; assay: as above

T2 sequence (P12314 16-292): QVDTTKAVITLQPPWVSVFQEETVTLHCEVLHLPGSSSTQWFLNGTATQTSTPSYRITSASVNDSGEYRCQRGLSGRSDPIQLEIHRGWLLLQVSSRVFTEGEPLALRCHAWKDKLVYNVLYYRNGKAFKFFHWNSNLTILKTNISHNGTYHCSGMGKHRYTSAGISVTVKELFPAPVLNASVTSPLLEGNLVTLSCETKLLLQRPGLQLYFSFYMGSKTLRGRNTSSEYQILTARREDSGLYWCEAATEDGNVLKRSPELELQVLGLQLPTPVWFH

Row | He/Con_1a (FcγRIa) | He/Con_2b (FcγRIIb) | Binder
1 | 106 relative, HeCon Ab = 100 | 89.8 relative, HeCon Ab = 100 | GpH7-A5/GpH7-B3 variant (H268_12R)/GpL16-k0 (antibody, human IgG1, kappa, IgG1 heterodimer, mutation in the GpH7-B3 chain only; also called He Ab) heavy 1: not shown heavy 2: not shown light: DIVMTQSPLSLPVTPGEPASISCQASESLVHSNRNTYLHWYLQKPGQSPQLLIYKVSNRFSGVPDRFSGSGSGTDFTLKISRVEAEDVGVYYCSQNTHVPPTFGQGTKVEIERTVAAPSVFIFPPSDEQLKSGTASVVCLLNNFYPREAKVQWKVDNALQSGNSQESVTEQDSKDSTYSLSSTLTLSKADYEKHKVYACEVTHQGLSSPVTKSFNRGEC
2 | 94.7 relative, HeCon Ab = 100 | 54.7 relative, HeCon Ab = 100 | GpH7-A5/GpH7-B3 variant (L235_05P)/GpL16-k0 (antibody, human IgG1, kappa, IgG1 heterodimer, mutation in the GpH7-B3 chain only; also called He Ab) heavy 1: not shown heavy 2: not shown light: DIVMTQSPLSLPVTPGEPASISCQASESLVHSNRNTYLHWYLQKPGQSPQLLIYKVSNRFSGVPDRFSGSGSGTDFTLKISRVEAEDVGVYYCSQNTHVPPTFGQGTKVEIERTVAAPSVFIFPPSDEQLKSGTASVVCLLNNFYPREAKVQWKVDNALQSGNSQESVTEQDSKDSTYSLSSTLTLSKADYEKHKVYACEVTHQGLSSPVTKSFNRGEC
3 | 112 relative, HeCon Ab = 100 | 86 relative, HeCon Ab = 100 | GpH7-A5/GpH7-B3 variant (H268_14T)/GpL16-k0 (antibody, human IgG1, kappa, IgG1 heterodimer, mutation in the GpH7-B3 chain only; also called He Ab) heavy 1: not shown heavy 2: not shown light: DIVMTQSPLSLPVTPGEPASISCQASESLVHSNRNTYLHWYLQKPGQSPQLLIYKVSNRFSGVPDRFSGSGSGTDFTLKISRVEAEDVGVYYCSQNTHVPPTFGQGTKVEIERTVAAPSVFIFPPSDEQLKSGTASVVCLLNNFYPREAKVQWKVDNALQSGNSQESVTEQDSKDSTYSLSSTLTLSKADYEKHKVYACEVTHQGLSSPVTKSFNRGEC
4 | 99.9 relative, HeCon Ab = 100 | 72.9 relative, HeCon Ab = 100 | GpH7-A5/GpH7-B3 variant (L234_05P)/GpL16-k0 (antibody, human IgG1, kappa, IgG1 heterodimer, mutation in the GpH7-B3 chain only; also called He Ab) heavy 1: not shown heavy 2: not shown light: DIVMTQSPLSLPVTPGEPASISCQASESLVHSNRNTYLHWYLQKPGQSPQLLIYKVSNRFSGVPDRFSGSGSGTDFTLKISRVEAEDVGVYYCSQNTHVPPTFGQGTKVEIERTVAAPSVFIFPPSDEQLKSGTASVVCLLNNFYPREAKVQWKVDNALQSGNSQESVTEQDSKDSTYSLSSTLTLSKADYEKHKVYACEVTHQGLSSPVTKSFNRGEC
5 | 94 relative, HeCon Ab = 100 | 59.4 relative, HeCon Ab = 100 | GpH7-A5/GpH7-B3 variant (L234_16H)/GpL16-k0 (antibody, human IgG1, kappa, IgG1 heterodimer, mutation in the GpH7-B3 chain only; also called He Ab) heavy 1: not shown heavy 2: not shown light: DIVMTQSPLSLPVTPGEPASISCQASESLVHSNRNTYLHWYLQKPGQSPQLLIYKVSNRFSGVPDRFSGSGSGTDFTLKISRVEAEDVGVYYCSQNTHVPPTFGQGTKVEIERTVAAPSVFIFPPSDEQLKSGTASVVCLLNNFYPREAKVQWKVDNALQSGNSQESVTEQDSKDSTYSLSSTLTLSKADYEKHKVYACEVTHQGLSSPVTKSFNRGEC
6 | 103 relative, HeCon Ab = 100 | 80.9 relative, HeCon Ab = 100 | GpH7-A5/GpH7-B3 variant (L234_07I)/GpL16-k0 (antibody, human IgG1, kappa, IgG1 heterodimer, mutation in the GpH7-B3 chain only; also called He Ab) heavy 1: not shown heavy 2: not shown light: DIVMTQSPLSLPVTPGEPASISCQASESLVHSNRNTYLHWYLQKPGQSPQLLIYKVSNRFSGVPDRFSGSGSGTDFTLKISRVEAEDVGVYYCSQNTHVPPTFGQGTKVEIERTVAAPSVFIFPPSDEQLKSGTASVVCLLNNFYPREAKVQWKVDNALQSGNSQESVTEQDSKDSTYSLSSTLTLSKADYEKHKVYACEVTHQGLSSPVTKSFNRGEC
7 | 101 relative, HeCon Ab = 100 | 99.8 relative, HeCon Ab = 100 | GpH7-A5/GpH7-B3 variant (L234_04F)/GpL16-k0 (antibody, human IgG1, kappa, IgG1 heterodimer, mutation in the GpH7-B3 chain only; also called He Ab) heavy 1: not shown heavy 2: not shown light: DIVMTQSPLSLPVTPGEPASISCQASESLVHSNRNTYLHWYLQKPGQSPQLLIYKVSNRFSGVPDRFSGSGSGTDFTLKISRVEAEDVGVYYCSQNTHVPPTFGQGTKVEIERTVAAPSVFIFPPSDEQLKSGTASVVCLLNNFYPREAKVQWKVDNALQSGNSQESVTEQDSKDSTYSLSSTLTLSKADYEKHKVYACEVTHQGLSSPVTKSFNRGEC
8 | 96.1 relative, HeCon Ab = 100 | 50.7 relative, HeCon Ab = 100 | GpH7-A5/GpH7-B3 variant (L234_01G)/GpL16-k0 (antibody, human IgG1, kappa, IgG1 heterodimer, mutation in the GpH7-B3 chain only; also called He Ab) heavy 1: not shown heavy 2: not shown light: DIVMTQSPLSLPVTPGEPASISCQASESLVHSNRNTYLHWYLQKPGQSPQLLIYKVSNRFSGVPDRFSGSGSGTDFTLKISRVEAEDVGVYYCSQNTHVPPTFGQGTKVEIERTVAAPSVFIFPPSDEQLKSGTASVVCLLNNFYPREAKVQWKVDNALQSGNSQESVTEQDSKDSTYSLSSTLTLSKADYEKHKVYACEVTHQGLSSPVTKSFNRGEC
9 | 104 relative, HeCon Ab = 100 | 73.1 relative, HeCon Ab = 100 | GpH7-A5/GpH7-B3 variant (L234_03V)/GpL16-k0 (antibody, human IgG1, kappa, IgG1 heterodimer, mutation in the GpH7-B3 chain only; also called He Ab) heavy 1: not shown heavy 2: not shown light: DIVMTQSPLSLPVTPGEPASISCQASESLVHSNRNTYLHWYLQKPGQSPQLLIYKVSNRFSGVPDRFSGSGSGTDFTLKISRVEAEDVGVYYCSQNTHVPPTFGQGTKVEIERTVAAPSVFIFPPSDEQLKSGTASVVCLLNNFYPREAKVQWKVDNALQSGNSQESVTEQDSKDSTYSLSSTLTLSKADYEKHKVYACEVTHQGLSSPVTKSFNRGEC
10 | 96.9 relative, HeCon Ab = 100 | 59.3 relative, HeCon Ab = 100 | GpH7-A5/GpH7-B3 variant (L234_13S)/GpL16-k0 (antibody, human IgG1, kappa, IgG1 heterodimer, mutation in the GpH7-B3 chain only; also called He Ab) heavy 1: not shown heavy 2: not shown light: DIVMTQSPLSLPVTPGEPASISCQASESLVHSNRNTYLHWYLQKPGQSPQLLIYKVSNRFSGVPDRFSGSGSGTDFTLKISRVEAEDVGVYYCSQNTHVPPTFGQGTKVEIERTVAAPSVFIFPPSDEQLKSGTASVVCLLNNFYPREAKVQWKVDNALQSGNSQESVTEQDSKDSTYSLSSTLTLSKADYEKHKVYACEVTHQGLSSPVTKSFNRGEC
